Test system: Renilla luciferase RNA
Test: Barcoded aptazyme variant library screen: un-cleaved Renilla luciferase RNA by barcode read counts, HEK293-T cells
Assay type: cell-based
Settings: triplicate
How it was run: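 Barcode sequencing of cDNA versus DNA, normalized per aptazyme, gave the un-cleaved Renilla luciferase RNA fraction and fold-change with versus without theophylline (triplicates). Library: T3H48 ribozyme with one of seven theophylline aptamer variants inserted at each position, placed in the Renilla 3′ UTR of a dual-luciferase vector.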

[1] = un-cleaved Renilla luciferase RNA by barcode read counts, with 1 mM theophylline (ON) over without theophylline (OFF), HEK293-T cells
[2] = un-cleaved Renilla luciferase RNA, HEK293-T cells cultured with 1 mM theophylline (ON) over without theophylline (OFF), barcode read counts

Molecule | Fold change in RNA expression between the ON state and the OFF state [1] | Fold change in RNA expression between the ON state and the OFF state [2] [fold]
RA401 (nucleic acid, expressed or natural sequence) DNA: GCGCGTCCTGGATTCGCGGAAACGCGCGGAATACCAGCATCGTCTTGATGCCCTTGGAAGTCCGTACATCCAGCTGACGAGTCCCAAATAGGACGAAACGCGC | 0.7 | 
RA398 (nucleic acid, expressed or natural sequence) DNA: GCGCGTCCTGGATTCGCGGACGAGAATACCAGCATCGTCTTGATGCCCTTGGAAGTCTCGAACGCGTACATCCAGCTGACGAGTCCCAAATAGGACGAAACGCGC | 0.7 | 
RA388 (nucleic acid, expressed or natural sequence) DNA: GCGCGTCCTGAGTGATACCAGCATCGTCTTGATGCCCTTGGCAGCACTGATTCGCGGAAACGCGTACATCCAGCTGACGAGTCCCAAATAGGACGAAACGCGC | 0.8 | 
RA389 (nucleic acid, expressed or natural sequence) DNA: GCGCGTCCTGGATTCGCGGAAACGCGTACCGGAATACCAGCATCGTCTTGATGCCCTTGGAAGTCCGATCCAGCTGACGAGTCCCAAATAGGACGAAACGCGC | 0.8 | 
RA395 (nucleic acid, expressed or natural sequence) DNA: GCGCGTCCTGGATTCGCGGAAACGCGTACATCCAGCTGACGAGTCCCAAATAGGAGAATACCAGCATCGTCTTGATGCCCTTGGAAGTCTCGACGAAACGCGC | 0.7 | 
RA403 (nucleic acid, expressed or natural sequence) DNA: GCGCGTCCTCGGAATACCAGCATCGTCTTGATGCCCTTGGAAGTCCGGGATTCGCGGAAACGCGTACATCCAGCTGACGAGTCCCAAATAGGACGAAACGCGC | 0.7 | 
RA402 (nucleic acid, expressed or natural sequence) DNA: GCGCGTCCTGGATTCGAGAATACCAGCATCGTCTTGATGCCCTTGGAAGTCTCGCGCGGAAACGCGTACATCCAGCTGACGAGTCCCAAATAGGACGAAACGCGC | 0.7 | 
RA396 (nucleic acid, expressed or natural sequence) DNA: GCGCGTCCTGGATTCGCGGAAACGCGTACATCCAGCTGCGGAATACCAGCATCGTCTTGATGCCCTTGGAAGTCCGACGAGTCCCAAATAGGACGAAACGCGC | 0.7 | 
RA399 (nucleic acid, expressed or natural sequence) DNA: GCGCGTCCTGGATTCGCGGAAACGCGTACATCCACGAGAATACCAGCATCGTCTTGATGCCCTTGGAAGTCTCGGCTGACGAGTCCCAAATAGGACGAAACGCGC | 0.7 | 
RA397 (nucleic acid, expressed or natural sequence) DNA: GCGCGTCCTGGATTCGCGGAAACGCGTACATCCAGCTGACGAGTCCCAAATAGGACGAAACGCGCCGGAATACCAGCATCGTCTTGATGCCCTTGGAAGTCCG | 0.7 | 
RA038 (nucleic acid, expressed or natural sequence) DNA: GCGCGTCCTGGATTCGCGGAAACGCGTACATCAGAATACCAGCATCGTCTTGATGCCCTTGGAAGTCTCAGCTGACGAGTCCCAAATAGGACGAAACGCGC |  | 2.2
RA039 (nucleic acid, expressed or natural sequence) DNA: GCGCGTCCTGGATTCGCGGAAACGCGTACATCGGAATACCAGCATCGTCTTGATGCCCTTGGAAGTCCCAGCTGACGAGTCCCAAATAGGACGAAACGCGC |  | 2.2
RA393 (nucleic acid, expressed or natural sequence) DNA: GCGCGTCCTGGATTCGCGGAAACGCGTACATCCAGCTGACGAGTCCCAAATAGGCGGAATACCAGCATCGTCTTGATGCCCTTGGAAGTCCGACGAAACGCGC | 0.7 | 
RA391 (nucleic acid, expressed or natural sequence) DNA: GCGCGTCCTGGATTCGCGGAAACGCGTACATCCAGCTGACGAGTCCCAGAGAATACCAGCATCGTCTTGATGCCCTTGGAAGTCTCAATAGGACGAAACGCGC | 0.7 | 
RA404 (nucleic acid, expressed or natural sequence) DNA: GCGCGTCCTGGATTCGCGGAAGGAATACCAGCATCGTCTTGATGCCCTTGGAAGTCCACGCGTACATCCAGCTGACGAGTCCCAAATAGGACGAAACGCGC | 0.7 | 
RA390 (nucleic acid, expressed or natural sequence) DNA: GCGCGTCCGGAATACCAGCATCGTCTTGATGCCCTTGGAAGTCCGGCCTGGATTCGCGGAAACGCGTACATCCAGCTGACGAGTCCCAAATAGGACGAAACGCGC | 0.7 | 
RA394 (nucleic acid, expressed or natural sequence) DNA: GCGCGTCCTGGATTCGCAGAATACCAGCATCGTCTTGATGCCCTTGGAAGTCTGGAAACGCGTACATCCAGCTGACGAGTCCCAAATAGGACGAAACGCGC | 0.7 | 
RA400 (nucleic acid, expressed or natural sequence) DNA: GCGCGTCCTGGATTCGCGGAACCGGAATACCAGCATCGTCTTGATGCCCTTGGAAGTCCGGACGCGTACATCCAGCTGACGAGTCCCAAATAGGACGAAACGCGC | 0.7 | 
RA405 (nucleic acid, expressed or natural sequence) DNA: GCGCGTCCTGGATTCGCGGAAACGCGTACGAGAATACCAGCATCGTCTTGATGCCCTTGGAAGTCTCGCATCCAGCTGACGAGTCCCAAATAGGACGAAACGCGC | 0.7 | 
RA392 (nucleic acid, expressed or natural sequence) DNA: GCGCGTCCTGGATTCGCGGACGGAATACCAGCATCGTCTTGATGCCCTTGGAAGTCCGAACGCGTACATCCAGCTGACGAGTCCCAAATAGGACGAAACGCGC | 0.7 | 

From US20260167959A1, “APTAZYME-BASED REGULATABLE GENE EXPRESSION SYSTEMS” (REJUVENATE BIO INC, priority 2022, published 2026)
